Experiment [1] deals with T1, cynomolgus monkey Pcsk9 with C-terminal his6 tag (cynomolgus monkey).
T1 chain: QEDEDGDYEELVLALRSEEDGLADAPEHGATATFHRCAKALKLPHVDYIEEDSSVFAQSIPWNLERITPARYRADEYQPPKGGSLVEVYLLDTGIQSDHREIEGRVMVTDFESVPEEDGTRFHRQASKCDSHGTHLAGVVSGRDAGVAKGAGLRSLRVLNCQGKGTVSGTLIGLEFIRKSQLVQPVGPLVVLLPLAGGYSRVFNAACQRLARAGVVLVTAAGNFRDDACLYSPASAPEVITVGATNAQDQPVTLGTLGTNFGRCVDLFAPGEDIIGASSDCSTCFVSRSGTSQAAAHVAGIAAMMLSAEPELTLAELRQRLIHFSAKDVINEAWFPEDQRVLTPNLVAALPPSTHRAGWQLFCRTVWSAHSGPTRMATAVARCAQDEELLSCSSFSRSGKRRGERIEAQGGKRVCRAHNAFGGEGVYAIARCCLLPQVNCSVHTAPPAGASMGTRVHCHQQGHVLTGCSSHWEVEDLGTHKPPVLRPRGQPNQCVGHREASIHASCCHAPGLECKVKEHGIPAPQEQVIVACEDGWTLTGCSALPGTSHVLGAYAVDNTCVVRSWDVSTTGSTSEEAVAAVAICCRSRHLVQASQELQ
Description: ELISA on cyno Pcsk9his, antibody 0.03 to 30 ng/ml, Abs 650nm.

Experiment [2] deals with T2, mouse Pcsk9 with C-terminal his6 tag (mouse, UniProt Q80W65 35-694, limits assumed).
T2 construct: also called murine PCSK9
T2 sequence (Q80W65 other isoform, or with tags, fused parts or gaps limits assumed): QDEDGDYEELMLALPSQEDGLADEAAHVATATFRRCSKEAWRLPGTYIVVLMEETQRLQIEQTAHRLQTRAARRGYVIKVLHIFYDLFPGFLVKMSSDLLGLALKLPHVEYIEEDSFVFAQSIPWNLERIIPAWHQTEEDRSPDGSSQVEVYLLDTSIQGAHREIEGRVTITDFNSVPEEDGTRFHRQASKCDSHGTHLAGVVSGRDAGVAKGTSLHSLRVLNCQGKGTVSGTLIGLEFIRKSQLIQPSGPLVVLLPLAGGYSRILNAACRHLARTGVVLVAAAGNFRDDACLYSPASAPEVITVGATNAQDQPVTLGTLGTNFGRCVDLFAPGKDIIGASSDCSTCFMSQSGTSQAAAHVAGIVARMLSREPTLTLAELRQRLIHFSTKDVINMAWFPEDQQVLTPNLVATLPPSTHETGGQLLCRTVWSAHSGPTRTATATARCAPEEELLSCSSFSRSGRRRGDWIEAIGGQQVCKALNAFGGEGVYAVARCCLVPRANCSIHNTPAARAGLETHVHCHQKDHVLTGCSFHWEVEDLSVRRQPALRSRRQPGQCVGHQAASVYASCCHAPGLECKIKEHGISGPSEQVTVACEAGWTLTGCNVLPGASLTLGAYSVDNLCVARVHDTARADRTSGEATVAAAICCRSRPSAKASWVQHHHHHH
Description: not told in the legend.

A further experiment deals with T3, hRspo-2 (human, UniProt Q6UXX9).
T3 construct: panel antigen of the specificity ELISA
T3 sequence (Q6UXX9 22-243 limits assumed): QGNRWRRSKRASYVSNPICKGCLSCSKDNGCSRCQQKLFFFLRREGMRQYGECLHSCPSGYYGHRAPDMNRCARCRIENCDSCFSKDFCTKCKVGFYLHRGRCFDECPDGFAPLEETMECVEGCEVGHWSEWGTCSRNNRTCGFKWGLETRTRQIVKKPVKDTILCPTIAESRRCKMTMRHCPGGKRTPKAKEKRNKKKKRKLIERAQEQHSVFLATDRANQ
The experiment in a line: specificity ELISA on coated antigen (88 ng per well), antibody at 2 µg/mL, ABS650. As to the method:
For specificity ELISAs on purified human and mouse IgGs, a 384-well plate was coated with a panel of purified human or mouse antigens at 88 ng per well and incubated overnight at 4° C. The plate was blocked and washed as described above, then 22 μL of purified mouse or human anti-PCSK9 antibody diluted to 2 μg/mL in PBS was added to each well. The plate was incubated for 1 hr at 37° C. then washed with PBST. Anti-mouse Fc antibody (Jackson ImmunoResearch Labs #115-035-071) or anti-human kappa antibody (Sigma #A7164) conjugated to HRP was diluted 1:5000 in PBS (25 μL) and added to each well. The plate was incubated for 1 hr at room temperature, then washed and developed as described above.
In order to test whether the antigen specificity of the parental mouse antibody LFU720 was retained in the final Humaneered™ IgGs, LGT209, LGT210 and LGT211, binding of the antibodies to a panel of human and mouse antigens (as well as human PCSK9) was tested in an ELISA assay.
A general note: ELISA stands for enzyme-linked immunosorbent assay.

Experiment [3] concerns the target T4, recombinant human Pcsk9 (aa 31-692) with C-terminal his6 tag (human, UniProt Q8NBP7 31-692).
T4 construct: In the TR-FRET assay it carried a fluorophore (hPcsk9-AF); also called hPCSK9; hPcsk9
The experiment in a line: Solution Equilibrium Titration (SET), MSD read-out. The protocol:
The binding kinetics of IgGs and Fab fragments were analyzed using a Solution Equilibrium Titration (“SET”) assay. Briefly, serial dilutions of hPCSK9 were added to 60 pM IgG or Fab and incubated overnight. A 96-well Standard Bind microtiter plate (Meso Scale Discovery) was coated with 1 μg/ml hPCSK9 and incubated overnight, washed with PBS/0.05% (w/v) Tween 20, blocked with PBS/5% (w/v) BSA, and washed again. The antibody-antigen preparation was added to the PCSK9-coated Standard Bind plate and incubated for 30 min at room temperature. After three additional washing steps, Sulfo-Tag-labeled goat-anti-human-detection antibody (R32AJ-5, Meso Scale Discovery) was added and incubated one hour at room temperature. After washing the plate three times, Read Buffer (Meso Scale Discovery) was added and electrochemiluminescence (ECL) signals were measured by a Sector Imager 6000 (Meso Scale Discovery). ECL data were processed with the excel add-in XLfit 4.3.2 (ID Business Solutions) using the fitting model applicable for antibodies described in Piehler, et al., (1997) J Immunol Methods 201:189-206.

Experiment [4] concerns the target T4, recombinant human Pcsk9 (aa 31-692) …. Description: SPR (Biacore S51), antibody captured by anti-mouse Fcγ, Pcsk9 in flow. The protocol: Binding studies of Pcsk9 to the LFU720 (2 μg/mL) were carried out by capturing the mouse antibody with a rabbit anti-mouse Fcγ antibody (Biacore #BR-1005-14) that was previously immobilized onto a Series S CM-5 Biacore sensor chip (certified) (Biacore #BR-1005-30). Covalent binding of the Fcγ capture antibody was done with the ‘Amine Coupling Kit’ (Biacore #BR-1000-50). The capture antibody (rabbit-anti-mouse) was attached to the EDCactivated dextran surface with a 50 μg/mL anti-Fcγ antibody solution in 10 mM sodium acetate, pH 5 (Biacore #BR-1003-51) at a flow rate of 10 μL/min. A range of concentrations of Pcsk9 from 0.5 μM to 7.8 nM (2 fold serial dilution) were flowed over the captured LFU720 chip in PBS plus 100 mM NaCl, 0.005% P20 (Biacore #BR-1000-54). The resulting sensorgrams were analyzed using the Biacore S51 Evaluation Software. Data from all concentrations was fitted globally to a 1:1 Langmuir model.
Target sequence in this assay (Q8NBP7 other isoform, or with tags, fused parts or gaps limits assumed, form in doubt): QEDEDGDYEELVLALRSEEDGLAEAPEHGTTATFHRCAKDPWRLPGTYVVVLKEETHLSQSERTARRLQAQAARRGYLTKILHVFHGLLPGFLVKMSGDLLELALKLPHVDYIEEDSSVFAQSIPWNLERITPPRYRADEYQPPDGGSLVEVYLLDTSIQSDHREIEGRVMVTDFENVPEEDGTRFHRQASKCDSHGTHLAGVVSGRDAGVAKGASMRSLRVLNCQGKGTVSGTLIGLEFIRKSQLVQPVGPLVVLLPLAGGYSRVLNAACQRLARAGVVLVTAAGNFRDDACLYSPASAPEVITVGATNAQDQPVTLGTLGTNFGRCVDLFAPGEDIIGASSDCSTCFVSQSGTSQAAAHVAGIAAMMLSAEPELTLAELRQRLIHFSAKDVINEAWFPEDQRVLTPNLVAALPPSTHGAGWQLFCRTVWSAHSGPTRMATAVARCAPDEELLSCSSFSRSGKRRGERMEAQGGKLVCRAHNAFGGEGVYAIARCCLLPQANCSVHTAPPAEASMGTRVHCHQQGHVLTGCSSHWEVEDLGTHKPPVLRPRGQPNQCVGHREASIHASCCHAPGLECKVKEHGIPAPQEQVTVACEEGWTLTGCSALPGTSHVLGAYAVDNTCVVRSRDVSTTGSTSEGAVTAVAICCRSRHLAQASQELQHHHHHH
For orientation: SPR reads the build-up and loss of mass on a sensor chip optically.

A further experiment has as its target T5, S681X (human, UniProt Q8NBP7).
T5 construct: C-terminal truncation mutant, expressed protein; also called Pcsk9 C-term mutant S681X
The experiment in a line: co-immunoprecipitation with 5P20, blot.

The target of another experiment is T6, A685X (human, UniProt Q8NBP7).
T6 construct: C-terminal truncation mutant, expressed protein; also called C-term mutant A685X
T6 sequence (Q8NBP7 31-684 limits assumed): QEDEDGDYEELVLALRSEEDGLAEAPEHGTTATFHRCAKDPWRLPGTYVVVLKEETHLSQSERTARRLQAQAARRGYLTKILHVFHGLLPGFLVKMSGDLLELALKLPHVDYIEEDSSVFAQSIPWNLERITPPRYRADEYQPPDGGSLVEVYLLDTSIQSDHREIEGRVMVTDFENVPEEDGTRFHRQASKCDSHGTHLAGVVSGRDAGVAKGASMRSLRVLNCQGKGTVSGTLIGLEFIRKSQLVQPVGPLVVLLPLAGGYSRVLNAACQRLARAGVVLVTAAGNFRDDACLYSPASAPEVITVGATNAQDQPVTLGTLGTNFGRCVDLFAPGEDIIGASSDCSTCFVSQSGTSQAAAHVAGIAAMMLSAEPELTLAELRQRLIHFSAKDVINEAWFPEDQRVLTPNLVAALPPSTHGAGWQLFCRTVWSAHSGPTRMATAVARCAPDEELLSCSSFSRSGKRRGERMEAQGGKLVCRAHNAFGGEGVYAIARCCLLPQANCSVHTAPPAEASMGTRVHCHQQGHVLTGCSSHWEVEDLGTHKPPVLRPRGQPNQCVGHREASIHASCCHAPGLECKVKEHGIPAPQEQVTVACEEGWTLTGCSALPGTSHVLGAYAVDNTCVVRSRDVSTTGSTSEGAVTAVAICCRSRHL
Description: co-immunoprecipitation with 5P20, blot.

The target of another experiment is T7, H683X (human, UniProt Q8NBP7).
T7 construct: C-terminal truncation mutant, expressed protein; also called Pcsk9 C-term mutant H683X
T7 sequence (Q8NBP7 31-682 limits assumed): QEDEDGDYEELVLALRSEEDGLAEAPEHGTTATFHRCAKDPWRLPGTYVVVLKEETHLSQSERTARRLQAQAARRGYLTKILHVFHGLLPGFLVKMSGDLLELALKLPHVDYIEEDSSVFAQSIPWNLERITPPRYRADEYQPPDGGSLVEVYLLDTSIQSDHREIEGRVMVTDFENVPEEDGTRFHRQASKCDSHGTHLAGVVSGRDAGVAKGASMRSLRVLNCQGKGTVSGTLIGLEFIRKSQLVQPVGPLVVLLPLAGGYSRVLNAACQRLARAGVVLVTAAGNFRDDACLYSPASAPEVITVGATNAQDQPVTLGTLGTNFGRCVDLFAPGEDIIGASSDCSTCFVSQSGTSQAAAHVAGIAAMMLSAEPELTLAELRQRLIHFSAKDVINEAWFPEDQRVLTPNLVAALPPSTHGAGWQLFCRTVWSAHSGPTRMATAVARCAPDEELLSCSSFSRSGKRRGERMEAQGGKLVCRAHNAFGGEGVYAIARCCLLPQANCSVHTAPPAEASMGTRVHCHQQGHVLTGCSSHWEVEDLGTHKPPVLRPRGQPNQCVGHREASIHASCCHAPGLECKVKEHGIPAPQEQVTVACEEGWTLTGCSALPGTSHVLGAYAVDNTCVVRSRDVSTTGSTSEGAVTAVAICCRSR
The experiment in a line: co-immunoprecipitation with 5P20, blot.

Another experiment deals with T8, R682X (human, UniProt Q8NBP7).
T8 construct: C-terminal truncation mutant, expressed protein; also called Pcsk9 C-term mutant R682X
T8 sequence (Q8NBP7 31-681 limits assumed): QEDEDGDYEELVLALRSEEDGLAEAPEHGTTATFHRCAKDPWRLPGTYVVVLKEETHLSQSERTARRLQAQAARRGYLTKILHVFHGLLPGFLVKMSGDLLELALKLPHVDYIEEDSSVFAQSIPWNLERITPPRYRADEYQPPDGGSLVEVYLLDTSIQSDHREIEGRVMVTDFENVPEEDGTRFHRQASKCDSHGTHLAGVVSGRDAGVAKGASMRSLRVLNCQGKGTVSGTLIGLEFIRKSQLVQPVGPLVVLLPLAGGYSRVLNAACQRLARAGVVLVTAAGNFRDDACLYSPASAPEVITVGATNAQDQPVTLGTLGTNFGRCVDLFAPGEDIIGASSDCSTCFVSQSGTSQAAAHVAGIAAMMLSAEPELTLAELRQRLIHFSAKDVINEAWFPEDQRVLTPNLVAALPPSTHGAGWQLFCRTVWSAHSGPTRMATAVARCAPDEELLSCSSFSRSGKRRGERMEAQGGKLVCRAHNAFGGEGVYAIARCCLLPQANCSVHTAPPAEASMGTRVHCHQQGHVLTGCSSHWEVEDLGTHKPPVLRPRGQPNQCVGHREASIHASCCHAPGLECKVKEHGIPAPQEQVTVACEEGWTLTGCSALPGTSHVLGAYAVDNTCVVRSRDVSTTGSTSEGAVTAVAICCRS
The experiment in a line: co-immunoprecipitation with 5P20, blot.

The target of the next experiment is T9, human LDL-R protein (human, UniProt P01130 22-788, limits assumed).
T9 construct: Labelled with europium in the TR-FRET assay; also called hLDL-R; hLDL-R-Eu (europium-labelled)
T9 sequence (P01130 22-788 limits assumed): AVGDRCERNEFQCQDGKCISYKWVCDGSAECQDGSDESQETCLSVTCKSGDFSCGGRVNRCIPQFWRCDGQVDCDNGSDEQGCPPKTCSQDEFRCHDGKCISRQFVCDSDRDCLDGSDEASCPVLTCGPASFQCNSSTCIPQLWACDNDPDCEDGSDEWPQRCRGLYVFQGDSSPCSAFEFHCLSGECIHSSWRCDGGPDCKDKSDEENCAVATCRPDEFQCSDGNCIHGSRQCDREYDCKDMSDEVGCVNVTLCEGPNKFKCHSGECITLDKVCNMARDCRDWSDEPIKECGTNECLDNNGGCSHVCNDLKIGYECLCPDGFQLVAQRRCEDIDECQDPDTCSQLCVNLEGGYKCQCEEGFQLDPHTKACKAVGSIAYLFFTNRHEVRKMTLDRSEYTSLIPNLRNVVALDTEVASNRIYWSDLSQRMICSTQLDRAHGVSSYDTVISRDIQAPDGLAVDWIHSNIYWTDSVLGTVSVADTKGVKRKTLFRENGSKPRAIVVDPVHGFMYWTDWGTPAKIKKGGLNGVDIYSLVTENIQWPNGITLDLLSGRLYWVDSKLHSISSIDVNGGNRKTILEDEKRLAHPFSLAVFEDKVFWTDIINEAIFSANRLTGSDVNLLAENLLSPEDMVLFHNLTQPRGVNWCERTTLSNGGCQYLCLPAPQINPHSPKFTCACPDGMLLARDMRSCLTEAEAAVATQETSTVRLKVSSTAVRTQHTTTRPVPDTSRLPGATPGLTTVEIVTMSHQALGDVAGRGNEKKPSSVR
The experiment in a line: ELISA.

The target in experiment [5] is T2, mouse Pcsk9 with C-terminal his6 tag. Description: ELISA.

T5 sequence (Q8NBP7 31-680 limits assumed): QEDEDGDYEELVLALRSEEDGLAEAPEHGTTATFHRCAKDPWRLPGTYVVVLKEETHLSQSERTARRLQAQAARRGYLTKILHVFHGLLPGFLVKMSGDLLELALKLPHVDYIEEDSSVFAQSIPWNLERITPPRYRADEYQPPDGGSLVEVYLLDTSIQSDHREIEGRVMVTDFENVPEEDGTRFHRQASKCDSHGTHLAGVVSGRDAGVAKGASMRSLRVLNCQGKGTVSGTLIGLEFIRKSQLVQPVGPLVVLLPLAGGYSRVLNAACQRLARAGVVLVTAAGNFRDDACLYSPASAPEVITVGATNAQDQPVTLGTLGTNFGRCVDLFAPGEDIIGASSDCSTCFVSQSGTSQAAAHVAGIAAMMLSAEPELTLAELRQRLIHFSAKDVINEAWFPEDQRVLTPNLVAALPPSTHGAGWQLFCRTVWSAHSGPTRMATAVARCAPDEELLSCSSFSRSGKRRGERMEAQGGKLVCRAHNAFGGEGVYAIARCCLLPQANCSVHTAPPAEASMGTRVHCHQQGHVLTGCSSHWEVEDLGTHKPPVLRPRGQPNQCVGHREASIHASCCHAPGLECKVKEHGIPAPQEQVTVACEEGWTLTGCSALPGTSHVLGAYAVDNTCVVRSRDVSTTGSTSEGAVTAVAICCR

B1: NVP-LGT211 (antibody, human IgG1, V domains shown)
VH: QVQLVQSGAEVKKPGASVKVSCKASGYTFSTMYMSWVRQAPGQGLEWMGRIDPANEHTNYAQKFQGRVTMTRDTSISTAYMELSRLTSDDTAVYYCARSYYYYAMDYWGQGTLVTVSS
VL: QIVLTQSPATLSVSPGERATLSCRASQSVSYMHWYQQKPGQAPRLLIYGVFRRATGIPDRFSGSGSGTDFTLTIGRLEPEDFAVYYCLQWSSDPPTFGQGTKLEIKR
notes: Silent human IgG1 kappa; also called pSR74 (Vh) + pJG10 (Vk); pSR074 + pJG10
By EC50 (read off the curve) is commonly meant the midpoint of the concentration-response curve. Usually Kd stands for the free concentration of one partner at which half of the binding sites on the other are occupied at equilibrium, for simple one-to-one binding. For the molecule B1, the “EC50 (read off the curve)” value in [1] is approximately 2 ng/mL. The binding result in [2] is “no binding”; with hRspo-2, “no binding (tested: 2 µg/mL)”. Moreover, the Kd in experiment [3] came to 0.19 nM.

B2: NVP-LFU720 (antibody, V domains shown)
VH: EVQLQQSGAELMKPGASVKLSCTASGFNIKDMYMSWVRQRPEQGLEWIGRIDPANGHTNYDPKFQAKATITTDTSSKTAYLHLSSLTSEDTAVYYCARSYYYYAMDYWGQGTSVTVSS
VL: QIVLTQSPAIMSASPGEKVTMTCSASSSVSYMHWYQQKPGSSPRLWIYLTFNLASGVPARFSGSGSGTSYSLSISSMEAEDAATYYCLQWSSDPPTFGSGTKLEIK
notes: Murine anti-human Pcsk9 IgG1-kappa monoclonal antibody from a hybridoma; also called 5P20; NVP-LFU720-AX-1
In the case of B2, the dissociation constant Kd in experiment [4] was found to be 0.2 nM. Besides, the binding result (with S681X; in the experiment with A685X; with H683X; with R682X; with human LDL-R protein; in [5]) was “no binding” in each case. In addition, in the experiment with hRspo-2, the binding result is “no binding (tested: 2 µg/mL)”.

The values are drawn from patent publication US20110142849A1 (IRM, published 2011).
